Test results from the supplement of paper PMC10126150.
± gives the standard deviation of the averaged measurements.

Tested on: ATP
Assay: switch fluorescence ratio, 500 uM ATP over buffer (Cy3 cluster intensity, sum of 5 cycles each) (fold (ratio)); higher = stronger signal-on switching upon ATP binding; sequences stand for … in TCGTCGGCAGCGTCAGATGTGTATAAGAGACAGTTTTTTTTTTTTTTTTTTTTTTTTT…TC
Settings: aptamer strand: ATP DNA aptamer (quencher-CACCTGGGGGAGTATTGCGGAGGAAGG + anchor), 100 nM annealed; ATP concentration: 500 uM
Procedure, shortened: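 After annealing to 100 nM quencher-labelled ATP aptamer, Cy3-labelled switching-strand clusters on a modified Illumina MiSeq flow-cell were imaged in selection buffer. A second image followed after 15 min with 500 uM ATP at 22 °C, and five such buffer/ATP cycles were done, each separated by NaOH stripping and re-annealing. The fluorescence ratio, averaged per switch-domain sequence, is summed target-cycle over summed buffer-cycle Cy3 intensity per cluster, with clusters outside 100-1000 RFU excluded.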
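Also: ATP exposure 15 min at 22 °C before imaging.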

| Sequence | switch fluorescence ratio |
| --- | --- |
| TACTTTTCGT | 0.995 ± 0.024 |
| TACTTTTGCT | 0.9669 ± 0.0014 |
| TAGAAAAAGA | 0.988 ± 0.016 |
| TAGAAAAGAG | 1.01 ± 0.024 |
| TAGAAAAGGC | 1.15 ± 0.21 |
| TAGAAACTTT | 1.1 ± 0.14 |
| TAGAAATGCG | 1.038 ± 0.0038 |
| TAGAACCGGG | 1.09 ± 0.024 |
| TAGAAGGGGT | 0.969 ± 0.047 |
| TAGAAGGGTT | 1 ± 0.024 |
| TAGAATCCGG | 0.979 ± 0.011 |
| TAGAATCGGG | 0.9758 ± 0.0078 |
| TAGACAGTTT | 0.993 ± 0.023 |
| TAGACCAAAA | 1.02 ± 0.017 |
| TAGACCGGAG | 1.04 ± 0.014 |
| TAGACGGAAG | 1.052 ± 0.00072 |
| TAGACGGGCA | 1.01 ± 0.015 |
| TAGAGAAGTT | 1 ± 0.015 |
| TAGAGAATTT | 0.984 ± 0.02 |
| TAGAGATCTA | 1.011 ± 0.0016 |
| TAGAGCATTG | 1 ± 0.044 |
| TAGAGGCAGG | 0.985 ± 0.018 |

| Sequence | switch fluorescence ratio |
| --- | --- |
| TAGAGGGCGG | 1.03 ± 0.012 |
| TAGAGGGGCG | 0.946 ± 0.065 |
| TAGAGTAGCT | 1 ± 0.035 |
| TAGAGTGGGC | 0.991 ± 0.013 |
| TAGATAATGG | 1.02 ± 0.014 |
| TAGATAGGGA | 1.01 ± 0.024 |
| TAGATCAATG | 1.02 ± 0.024 |
| TAGATCGCTG | 0.931 ± 0.028 |
| TAGATGTTGA | 0.973 ± 0.036 |
| TAGATTCTGA | 1.01 ± 0.032 |
| TAGATTGACC | 1.04 ± 0.033 |
| TAGATTGGAG | 0.987 ± 0.0072 |
| TAGATTGGTG | 0.991 ± 0.04 |
| TAGCAACGCA | 1.03 ± 0.015 |
| TAGCAACGGG | 1.03 ± 0.015 |
| TAGCAATTAG | 2.45 ± 0.031 |
| TAGCACCATT | 1.1 ± 0.072 |
| TAGCAGACGG | 1.03 ± 0.015 |
| TAGCAGGGTG | 1.14 ± 0.019 |
| TAGCATTGGT | 0.9903 ± 0.0016 |
| TAGCCGGAGG | 0.986 ± 0.018 |
| TAGCCGGGGT | 1.04 ± 0.054 |

| Sequence | switch fluorescence ratio |
| --- | --- |
| TAGCCGGTTC | 1.026 ± 0.01 |
| TAGCCTGGAC | 1.1 ± 0.031 |
| TAGCCTTAGA | 0.983 ± 0.02 |
| TAGCGAAAAA | 0.992 ± 0.016 |
| TAGCGCTCTA | 0.999 ± 0.024 |
| TAGCGCTGGT | 1.01 ± 0.02 |
| TAGCGGCGGC | 1.01 ± 0.016 |
| TAGCGGGTTT | 1.03 ± 0.023 |
| TAGCGGTGTC | 1.07 ± 0.021 |
| TAGCGGTTGG | 1.022 ± 0.0053 |
| TAGCGTTTCC | 1.097 ± 0.0047 |
| TAGCTCATTA | 0.979 ± 0.019 |
| TAGCTGAAGT | 0.975 ± 0.038 |
| TAGCTGTACA | 1.01 ± 0.015 |
| TAGCTTTCGA | 1.06 ± 0.031 |
| TAGGAAGTCG | 0.995 ± 0.047 |
| TAGGACCTGT | 0.9849 ± 0.0073 |
| TAGGACGGTG | 0.992 ± 0.034 |
| TAGGACTCTC | 1.01 ± 0.02 |
| TAGGAGAAGT | 0.991 ± 0.042 |
| TAGGAGAGCC | 1.03 ± 0.017 |
| TAGGAGATGA | 1 ± 0.042 |

| Sequence | switch fluorescence ratio |
| --- | --- |
| TAGGAGGCTC | 1.03 ± 0.014 |
| TAGGAGGGA | 1 ± 0.024 |
| TAGGAGTGCT | 0.9896 ± 0.0066 |
| TAGGCAGATG | 1.01 ± 0.02 |
| TAGGCAGGCG | 1.01 ± 0.1 |
| TAGGCAGGGC | 1.04 ± 0.11 |
| TAGGCATTTG | 1.006 ± 0.0069 |
| TAGGCCAAGT | 0.989 ± 0.026 |
| TAGGCCCTTG | 1.01 ± 0.043 |
| TAGGCCGTTT | 1 ± 0.084 |
| TAGGCGGCAC | 1.03 ± 0.046 |
| TAGGCGGGGG | 1 ± 0.02 |
| TAGGCTACGG | 1.03 ± 0.014 |
| TAGGCTGATA | 1.01 ± 0.029 |
| TAGGCTGGGC | 0.9673 ± 0.0041 |
| TAGGCTGGGG | 0.998 ± 0.023 |
| TAGGCTTTAG | 1.01 ± 0.012 |
| TAGGGAAATC | 0.983 ± 0.013 |
| TAGGGATGGT | 0.979 ± 0.022 |
